Laboratory results taken from the supplement of paper PMC10065799, “High-throughput profiling of sequence recognition by tyrosine kinases and SH2 domains using bacterial peptide display” (eLife, 2023).

Tests used:
AncSZ = experiment: phosphorylation enrichment, bacterial display (enrichment ratio); higher = better substrate or ligand; peptides without Tyr show the background
EPHB1 = EPHB1 (UniProt P54762); experiment: as above
EPHB2 = EPHB2 (UniProt P29323); experiment: as above
FGFR1 = FGFR1 (UniProt P11362); experiment: as above
Chain of FGFR1 (P11362 whole entry, looked up): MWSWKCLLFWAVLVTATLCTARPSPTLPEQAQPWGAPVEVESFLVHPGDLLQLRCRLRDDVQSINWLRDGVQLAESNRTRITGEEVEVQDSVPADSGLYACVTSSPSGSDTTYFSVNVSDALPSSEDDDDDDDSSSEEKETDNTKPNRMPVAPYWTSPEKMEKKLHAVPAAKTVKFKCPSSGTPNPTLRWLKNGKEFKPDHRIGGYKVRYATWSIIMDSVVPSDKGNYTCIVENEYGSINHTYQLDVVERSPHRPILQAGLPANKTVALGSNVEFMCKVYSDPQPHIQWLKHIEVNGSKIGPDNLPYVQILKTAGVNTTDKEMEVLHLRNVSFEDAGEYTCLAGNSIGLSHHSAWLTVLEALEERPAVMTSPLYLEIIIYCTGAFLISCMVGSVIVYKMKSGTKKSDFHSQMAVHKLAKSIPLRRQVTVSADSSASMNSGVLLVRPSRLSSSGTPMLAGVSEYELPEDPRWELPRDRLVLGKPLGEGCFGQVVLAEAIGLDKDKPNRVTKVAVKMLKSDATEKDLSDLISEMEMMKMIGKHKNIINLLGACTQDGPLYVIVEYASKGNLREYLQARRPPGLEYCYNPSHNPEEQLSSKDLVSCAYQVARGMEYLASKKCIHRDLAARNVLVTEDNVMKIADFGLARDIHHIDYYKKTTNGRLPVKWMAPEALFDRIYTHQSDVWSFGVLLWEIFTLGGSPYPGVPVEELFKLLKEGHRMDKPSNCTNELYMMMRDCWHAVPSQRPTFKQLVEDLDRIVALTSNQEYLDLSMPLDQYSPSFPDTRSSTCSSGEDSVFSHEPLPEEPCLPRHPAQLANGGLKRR

FGFR3 = FGFR3 (UniProt P22607); experiment: as above
Fer (mouse) = experiment: as above
Fes = Fes (UniProt P07332); experiment: as above
Fyn = Fyn (UniProt P06241); experiment: as above
Chain of Fyn (P06241 whole entry, looked up): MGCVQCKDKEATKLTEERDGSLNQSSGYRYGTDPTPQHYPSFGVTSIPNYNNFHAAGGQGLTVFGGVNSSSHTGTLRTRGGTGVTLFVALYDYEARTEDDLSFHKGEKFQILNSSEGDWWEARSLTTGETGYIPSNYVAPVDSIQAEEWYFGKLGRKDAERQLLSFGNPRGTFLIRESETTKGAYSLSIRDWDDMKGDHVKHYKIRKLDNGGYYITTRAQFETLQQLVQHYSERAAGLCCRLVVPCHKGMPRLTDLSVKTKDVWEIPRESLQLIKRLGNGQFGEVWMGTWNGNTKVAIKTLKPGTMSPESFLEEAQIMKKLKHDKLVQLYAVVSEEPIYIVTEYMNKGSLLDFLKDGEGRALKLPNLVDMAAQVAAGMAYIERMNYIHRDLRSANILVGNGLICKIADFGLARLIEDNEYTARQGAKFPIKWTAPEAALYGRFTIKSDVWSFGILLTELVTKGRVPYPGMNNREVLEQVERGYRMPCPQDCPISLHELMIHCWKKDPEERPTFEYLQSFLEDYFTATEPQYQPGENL

Hck = Hck (UniProt P08631); experiment: as above
Jak2 = Jak2 (UniProt O60674); experiment: as above
MERTK = MERTK (UniProt Q12866); experiment: as above
Chain of MERTK (Q12866 whole entry, looked up): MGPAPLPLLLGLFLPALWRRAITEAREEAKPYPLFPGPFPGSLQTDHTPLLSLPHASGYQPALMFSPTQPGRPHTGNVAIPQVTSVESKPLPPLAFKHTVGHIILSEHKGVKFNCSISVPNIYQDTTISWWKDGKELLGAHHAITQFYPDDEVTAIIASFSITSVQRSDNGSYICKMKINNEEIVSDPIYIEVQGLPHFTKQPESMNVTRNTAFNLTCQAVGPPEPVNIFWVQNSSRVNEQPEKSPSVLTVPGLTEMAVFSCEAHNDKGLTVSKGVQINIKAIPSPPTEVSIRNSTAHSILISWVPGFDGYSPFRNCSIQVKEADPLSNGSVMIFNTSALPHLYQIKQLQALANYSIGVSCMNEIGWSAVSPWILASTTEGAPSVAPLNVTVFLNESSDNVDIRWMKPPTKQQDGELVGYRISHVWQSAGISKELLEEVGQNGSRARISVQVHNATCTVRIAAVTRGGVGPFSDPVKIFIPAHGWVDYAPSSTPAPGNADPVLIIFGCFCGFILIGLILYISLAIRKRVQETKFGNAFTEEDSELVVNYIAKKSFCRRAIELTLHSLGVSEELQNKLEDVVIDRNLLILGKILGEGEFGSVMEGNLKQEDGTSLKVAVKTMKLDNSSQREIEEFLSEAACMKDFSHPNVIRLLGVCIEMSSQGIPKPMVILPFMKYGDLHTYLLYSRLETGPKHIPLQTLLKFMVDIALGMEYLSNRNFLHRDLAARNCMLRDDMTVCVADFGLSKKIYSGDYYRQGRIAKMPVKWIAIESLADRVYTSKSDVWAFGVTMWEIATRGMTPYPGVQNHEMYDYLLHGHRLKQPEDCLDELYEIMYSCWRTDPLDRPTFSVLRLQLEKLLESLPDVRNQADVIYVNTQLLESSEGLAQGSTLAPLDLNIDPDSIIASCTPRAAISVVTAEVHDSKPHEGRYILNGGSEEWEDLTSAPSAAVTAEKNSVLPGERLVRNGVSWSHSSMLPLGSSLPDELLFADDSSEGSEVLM

c-Abl (mouse) = experiment: as above
c-Src = experiment: as above
Grb2 SH2 = Grb2 SH2 (UniProt P62993); experiment: SH2 binding enrichment of the phosphorylated peptide, bacterial display (enrichment ratio); higher = better substrate or ligand; peptides without Tyr show the background
Chain of Grb2 SH2 (P62993 whole entry, looked up): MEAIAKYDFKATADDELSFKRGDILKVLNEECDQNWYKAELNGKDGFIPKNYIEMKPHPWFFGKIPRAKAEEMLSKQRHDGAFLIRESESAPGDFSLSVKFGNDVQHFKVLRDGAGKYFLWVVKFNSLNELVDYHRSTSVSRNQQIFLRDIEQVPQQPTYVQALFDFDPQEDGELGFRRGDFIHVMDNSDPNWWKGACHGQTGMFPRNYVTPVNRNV

SHP2-C SH2 = experiment: as above
c-Src SH2 = experiment: as above
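Wherever SH2 binding enrichment of the phosphorylated peptide, bacterial display is given: peptide library displayed on the E. coli surface as eCPX fusions, selected cells deep-sequenced, score is each peptide's frequency after selection divided by its frequency in the input.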
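Wherever phosphorylation enrichment, bacterial display is given: 11-residue human phosphosite peptides and single-mutation variants displayed on the E. coli surface, counted by deep sequencing, each peptide's frequency after selection divided by its frequency in the unselected input library; frequency after pTyr selection over input frequency; kinase dosed for 20-30% of maximal phosphorylation in three min.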

Chain of EPHB2 (P29323 whole entry, looked up): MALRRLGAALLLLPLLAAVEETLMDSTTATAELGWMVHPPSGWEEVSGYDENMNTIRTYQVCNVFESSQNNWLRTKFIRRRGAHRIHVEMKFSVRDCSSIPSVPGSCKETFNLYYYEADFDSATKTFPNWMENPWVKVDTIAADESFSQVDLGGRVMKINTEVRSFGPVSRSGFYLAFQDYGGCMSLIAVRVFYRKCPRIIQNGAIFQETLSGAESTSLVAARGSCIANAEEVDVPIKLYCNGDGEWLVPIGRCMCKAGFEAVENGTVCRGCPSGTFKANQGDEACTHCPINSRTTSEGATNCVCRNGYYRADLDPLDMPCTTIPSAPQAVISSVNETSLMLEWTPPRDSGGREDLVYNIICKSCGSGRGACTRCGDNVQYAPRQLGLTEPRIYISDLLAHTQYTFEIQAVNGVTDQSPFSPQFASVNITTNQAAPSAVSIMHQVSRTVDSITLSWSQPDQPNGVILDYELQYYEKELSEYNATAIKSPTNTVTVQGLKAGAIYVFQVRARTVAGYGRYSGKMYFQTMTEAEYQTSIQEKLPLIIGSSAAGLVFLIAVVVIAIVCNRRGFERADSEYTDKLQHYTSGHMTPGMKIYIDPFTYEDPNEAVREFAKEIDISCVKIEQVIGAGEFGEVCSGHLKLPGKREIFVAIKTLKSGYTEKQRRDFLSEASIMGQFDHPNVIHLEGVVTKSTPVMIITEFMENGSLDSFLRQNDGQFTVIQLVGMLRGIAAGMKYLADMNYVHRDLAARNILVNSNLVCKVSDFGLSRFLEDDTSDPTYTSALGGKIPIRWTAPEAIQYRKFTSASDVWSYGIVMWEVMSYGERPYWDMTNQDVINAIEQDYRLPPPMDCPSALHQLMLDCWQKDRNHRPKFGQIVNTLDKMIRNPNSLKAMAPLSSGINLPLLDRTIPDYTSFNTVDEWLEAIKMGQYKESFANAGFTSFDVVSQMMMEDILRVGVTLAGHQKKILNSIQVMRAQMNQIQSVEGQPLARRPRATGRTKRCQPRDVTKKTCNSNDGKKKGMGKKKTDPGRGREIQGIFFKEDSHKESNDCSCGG
Chain of EPHB1 (P54762 whole entry, looked up): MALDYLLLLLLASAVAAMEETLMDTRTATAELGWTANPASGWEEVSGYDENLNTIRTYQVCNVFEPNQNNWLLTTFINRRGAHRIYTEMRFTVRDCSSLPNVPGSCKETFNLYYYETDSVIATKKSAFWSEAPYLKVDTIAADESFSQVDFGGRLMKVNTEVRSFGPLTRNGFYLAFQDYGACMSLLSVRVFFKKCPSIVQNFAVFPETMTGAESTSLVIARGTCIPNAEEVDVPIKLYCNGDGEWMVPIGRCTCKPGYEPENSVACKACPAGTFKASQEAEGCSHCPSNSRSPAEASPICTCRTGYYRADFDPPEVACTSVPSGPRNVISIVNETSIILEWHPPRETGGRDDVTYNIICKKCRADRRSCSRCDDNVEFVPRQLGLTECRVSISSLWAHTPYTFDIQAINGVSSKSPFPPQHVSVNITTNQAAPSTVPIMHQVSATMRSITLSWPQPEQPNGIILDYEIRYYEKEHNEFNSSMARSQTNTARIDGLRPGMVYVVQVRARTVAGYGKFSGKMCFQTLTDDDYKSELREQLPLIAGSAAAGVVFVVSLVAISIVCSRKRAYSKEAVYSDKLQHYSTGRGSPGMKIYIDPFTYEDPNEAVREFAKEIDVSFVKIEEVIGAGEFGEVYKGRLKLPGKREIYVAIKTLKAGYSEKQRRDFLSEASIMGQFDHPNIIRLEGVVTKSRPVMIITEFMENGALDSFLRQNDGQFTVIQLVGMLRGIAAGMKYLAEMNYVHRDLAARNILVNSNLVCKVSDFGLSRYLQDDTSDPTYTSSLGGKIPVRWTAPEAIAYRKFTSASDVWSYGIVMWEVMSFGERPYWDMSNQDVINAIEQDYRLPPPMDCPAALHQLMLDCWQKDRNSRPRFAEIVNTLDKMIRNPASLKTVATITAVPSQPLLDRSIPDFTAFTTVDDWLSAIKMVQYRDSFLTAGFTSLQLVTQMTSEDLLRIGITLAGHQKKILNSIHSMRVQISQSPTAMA

Row | Sequence | phosphorylation enrichment (AncSZ) | phosphorylation enrichment (EPHB1) | phosphorylation enrichment (EPHB2) | phosphorylation enrichment (FGFR1) | phosphorylation enrichment (FGFR3) | phosphorylation enrichment (Fer (mouse)) | phosphorylation enrichment (Fes) | phosphorylation enrichment (Fyn) | phosphorylation enrichment (Hck) | phosphorylation enrichment (Jak2) | phosphorylation enrichment (MERTK) | phosphorylation enrichment (c-Abl (mouse)) | phosphorylation enrichment (c-Src) | SH2 binding enrichment (Grb2 SH2) | SH2 binding enrichment (SHP2-C SH2) | SH2 binding enrichment (c-Src SH2)
1 | KIVFVYVKKRS [DNAI2_Y7_E2K_YF] | 1.06 | 0.439 | 0.48 | 0.466 | 0.731 | 0.478 | 0.966 | 0.425 | 0.449 | 0.925 | 0.354 | 0.576 | 0.428 | 1.27 | 1.13 | 0.856
2 | TEAGNYKLCFD [TMED1_Y103_D102N] | 1.12 | 0.53 | 0.577 | 0.627 | 0.749 | 0.492 | 1.05 | 0.505 | 0.549 | 1.17 | 0.453 | 0.785 | 0.424 | 0.924 | 0.538 | 0.466
3 | RDLTDYLMKIL [ACTA1_Y190] | 1.09 | 0.58 | 0.529 | 0.539 | 0.896 | 0.581 | 1.21 | 0.554 | 0.551 | 1.16 | 0.477 | 0.791 | 0.613 | 1.43 | 1.37 | 1.15
4 | SASRSYSRSRS [SRRM4_Y549] | 0.635 | 0.466 | 0.521 | 0.426 | 0.497 | 0.505 | 0.594 | 0.518 | 0.503 | 0.58 | 0.589 | 0.659 | 0.588 | 0.622 | 0.451 | 0.424
5 | EAIAKYDLKAT [GRB2_Y7_F9L] | 0.809 | 0.489 | 0.464 | 0.466 | 0.634 | 0.443 | 0.713 | 0.408 | 0.458 | 0.851 | 0.412 | 0.617 | 0.438 | 0.874 | 0.741 | 0.478
6 | FCRHNYGAVES [HLA-DRB1_Y112_V114A_YF] | 0.628 | 0.674 | 0.555 | 0.471 | 0.604 | 0.42 | 0.826 | 0.359 | 0.441 | 0.856 | 0.439 | 0.83 | 0.527 | 1 | 0.816 | 1.05
7 | MHYSNYVSKGS [PDGFRA_Y849_D846Y] | 0.617 | 0.412 | 0.472 | 0.421 | 0.397 | 0.458 | 0.533 | 0.424 | 0.478 | 0.467 | 0.526 | 0.432 | 0.495 | 1.34 | 0.78 | 0.799
8 | KLNNEHLELNY [MME_Y497_Y497H] | 0.775 | 0.402 | 0.452 | 0.437 | 0.517 | 0.445 | 0.768 | 0.471 | 0.421 | 0.619 | 0.395 | 0.58 | 0.417 | 0.934 | 0.734 | 0.573
9 | QTPVLYAMLYH [MPZ_Y220_D224Y] | 1.1 | 9.9 | 6.54 | 5.59 | 4.53 | 8.03 | 1.43 | 4.4 | 5.44 | 1.89 | 8.33 | 2.58 | 3.4 | 0.917 | 1.05 | 0.44
10 | NGSKAYAYVHF [PABPC5_Y147_G146A] | 1.06 | 0.514 | 0.52 | 0.568 | 0.646 | 0.637 | 1.03 | 0.4 | 0.438 | 0.796 | 0.656 | 0.634 | 0.401 | 0.903 | 18.8 | 6.01
11 | DAVKHYMQFQK [CNGA2_Y395_R399Q] | 0.548 | 0.451 | 0.301 | 0.348 | 0.449 | 0.424 | 0.496 | 0.429 | 0.552 | 0.461 | 0.473 | 0.356 | 0.485 | 0.768 | 0.781 | 0.62
12 | DLEKTYNTFRS [B4GALNT2_Y538_A533D_YF] | 0.656 | 0.445 | 0.319 | 0.431 | 0.55 | 0.391 | 0.851 | 0.967 | 0.734 | 0.736 | 0.291 | 0.523 | 1.75 | 0.846 | 0.629 | 0.506
13 | NGVSFYINLCQ [IGF2R_Y2025_YF] | 1.5 | 1.11 | 0.699 | 0.568 | 1.01 | 0.671 | 2 | 0.452 | 0.567 | 1.92 | 0.478 | 1.16 | 0.472 | 0.791 | 0.651 | 0.396
14 | LVTRSYLLGNS [LMNA_Y646] | 1.37 | 0.931 | 0.68 | 0.841 | 0.939 | 0.85 | 1.52 | 0.823 | 0.708 | 1.27 | 0.794 | 1.14 | 0.854 | 0.836 | 0.633 | 0.444
15 | LGRTRYQDVTG [MIPEP_Y510_H512D] | 0.899 | 0.62 | 0.548 | 0.525 | 0.665 | 0.563 | 0.735 | 0.586 | 0.336 | 0.888 | 0.722 | 0.799 | 0.584 | 0.986 | 0.95 | 1
16 | RETSLYKACER [ASB2_Y162_P160S] | 1 | 0.59 | 0.609 | 0.548 | 0.558 | 0.762 | 0.954 | 0.481 | 0.9 | 1.31 | 0.719 | 0.85 | 0.939 | 1.14 | 0.799 | 0.857
17 | DFLEKYFKFGC [NNMT_Y24_S29C_YF] | 1.11 | 0.55 | 0.545 | 0.497 | 0.73 | 0.554 | 1.38 | 0.435 | 0.417 | 0.993 | 0.507 | 0.768 | 0.549 | 0.84 | 0.763 | 0.674

Row | Sequence | phosphorylation enrichment (AncSZ) | phosphorylation enrichment (EPHB1) | phosphorylation enrichment (EPHB2) | phosphorylation enrichment (FGFR1) | phosphorylation enrichment (FGFR3) | phosphorylation enrichment (Fer (mouse)) | phosphorylation enrichment (Fes) | phosphorylation enrichment (Fyn) | phosphorylation enrichment (Hck) | phosphorylation enrichment (Jak2) | phosphorylation enrichment (MERTK) | phosphorylation enrichment (c-Abl (mouse)) | phosphorylation enrichment (c-Src) | SH2 binding enrichment (Grb2 SH2) | SH2 binding enrichment (SHP2-C SH2) | SH2 binding enrichment (c-Src SH2)
18 | CTTILYNFMCN [TP53_Y234_H233L_YF] | 0.96 | 0.584 | 0.622 | 0.601 | 0.806 | 0.87 | 1.22 | 1.03 | 0.979 | 0.957 | 1.68 | 0.7 | 2.16 | 2.3 | 2.2 | 1.79
19 | IVKAFYVHARA [AIPL1_Y268_R270H_YF] | 1.04 | 0.492 | 0.621 | 0.479 | 0.825 | 0.559 | 1.18 | 0.585 | 0.488 | 0.955 | 0.601 | 0.718 | 0.41 | 1.36 | 1.53 | 0.781
20 | CNTIHYNYMCN [TP53_Y234_T230N] | 0.897 | 0.575 | 0.581 | 0.586 | 0.653 | 0.554 | 0.865 | 0.413 | 0.428 | 0.799 | 0.521 | 0.713 | 0.532 | 0.937 | 4.68 | 6.74
21 | GPQGFYSNKLV [PTPN14_Y506_V505F] | 0.529 | 0.307 | 0.387 | 0.369 | 0.406 | 0.409 | 0.441 | 0.348 | 0.393 | 0.445 | 0.641 | 0.586 | 0.45 | 0.792 | 0.708 | 0.465
22 | QSPQLYKQLCI [DARS1_Y253_M256L] | 1.02 | 0.511 | 0.957 | 0.653 | 1.05 | 0.483 | 1.12 | 0.719 | 0.706 | 0.875 | 0.432 | 0.449 | 0.53 | 0.585 | 0.625 | 0.432
23 | TACNPYKPPGP | 0.605 | 0.733 | 0.417 | 0.354 | 0.437 | 0.449 | 0.717 | 0.469 | 0.384 | 0.521 | 0.393 | 1.14 | 0.46 | 1.07 | 0.838 | 0.786
24 | NFFDTCIKTCL [IQGAP2_Y1445_Y1445C_YF] | 0.809 | 0.484 | 0.491 | 0.476 | 0.607 | 0.45 | 1.01 | 0.369 | 0.407 | 0.879 | 0.523 | 0.721 | 0.521 | 1.15 | 1.06 | 1.01
25 | MAYDRYAAICS [OR8H2_Y123_H120Y] | 0.94 | 0.699 | 0.828 | 0.526 | 0.687 | 0.597 | 1.35 | 0.526 | 0.76 | 1.04 | 0.835 | 0.839 | 0.661 | 0.852 | 0.956 | 2.79
26 | LRSKQYLRNPP [SHC1_Y315_F312S] | 0.376 | 0.426 | 0.359 | 0.277 | 0.37 | 0.413 | 0.619 | 0.452 | 0.4 | 0.355 | 0.364 | 0.575 | 0.399 | 1.05 | 0.82 | 0.783
27 | KGEPQYSSHSS [SIPA1L3_Y1265] | 0.515 | 0.327 | 0.317 | 0.298 | 0.421 | 0.45 | 0.547 | 0.554 | 0.295 | 0.57 | 0.429 | 0.498 | 0.496 | 0.853 | 0.408 | 0.411
28 | EQSNPYMVLDI [ROCK2_Y1197] | 1.19 | 0.577 | 0.616 | 1.11 | 1.1 | 3.79 | 1.09 | 2.5 | 1.38 | 1.24 | 2.28 | 0.737 | 3.73 | 0.923 | 0.654 | 0.72
29 | FRTPGYREVVI [TNS2_Y673_A670T_YF] | 0.703 | 0.418 | 0.446 | 0.45 | 0.6 | 0.473 | 0.814 | 0.411 | 0.43 | 0.615 | 0.546 | 0.597 | 0.504 | 1.35 | 0.901 | 0.607
30 | MEIHAYHKLLE [LMNA_Y376_R377H] | 0.974 | 0.475 | 0.588 | 0.474 | 0.746 | 0.422 | 1.25 | 0.445 | 0.552 | 1.03 | 0.403 | 0.691 | 0.441 | 0.743 | 0.762 | 8.92
31 | KQELVYPNKKL [OPTN_Y356_T357P] | 0.576 | 0.33 | 0.358 | 0.356 | 0.417 | 0.323 | 0.743 | 0.324 | 0.293 | 0.443 | 0.374 | 0.561 | 0.349 | 0.811 | 0.505 | 0.471
32 | RIFDFYSARKT [STOX1_Y858_A863T_YF] | 0.715 | 0.467 | 0.553 | 0.519 | 0.496 | 0.311 | 0.833 | 0.485 | 1.37 | 0.417 | 0.595 | 0.491 | 0.624 | 0.977 | 0.907 | 0.517
33 | TCRPPYFHRNC [HGD_Y333_F329C_YF] | 1.05 | 0.215 | 0.686 | 0.255 | 0.568 | 0.334 | 1.06 | 0.4 | 0.548 | 0.914 | 0.758 | 0.878 | 0.314 | 1.45 | 0.9 | 1
